B2: ribonuclease A (enzyme, UniProt P61823 27-150, looked up)
chain: KETAAAKFERQHMDSSTSAASSSNYCNQMMKSRNLTKDRCKPVNTFVHESLADVQAVCSQKNVACKNGQTNCYQSYSTMSITDCRETGSSKYPNCAYKTTQANKHIIVACEGNPYVPVHFDASV
notes: also called RNASE A; RNase A

Legend:
ribonuclease A = target: B2; test: affinity chromatography on RNase A-Sepharose 4B resin
[1] = target: T1, C329A human ribonuclease inhibitor (human, UniProt P13489 2-461, limits assumed); test: inhibition of RNase A activity, poly(C) cleavage assay
T1 construct: also called C329A hRI
T1 sequence: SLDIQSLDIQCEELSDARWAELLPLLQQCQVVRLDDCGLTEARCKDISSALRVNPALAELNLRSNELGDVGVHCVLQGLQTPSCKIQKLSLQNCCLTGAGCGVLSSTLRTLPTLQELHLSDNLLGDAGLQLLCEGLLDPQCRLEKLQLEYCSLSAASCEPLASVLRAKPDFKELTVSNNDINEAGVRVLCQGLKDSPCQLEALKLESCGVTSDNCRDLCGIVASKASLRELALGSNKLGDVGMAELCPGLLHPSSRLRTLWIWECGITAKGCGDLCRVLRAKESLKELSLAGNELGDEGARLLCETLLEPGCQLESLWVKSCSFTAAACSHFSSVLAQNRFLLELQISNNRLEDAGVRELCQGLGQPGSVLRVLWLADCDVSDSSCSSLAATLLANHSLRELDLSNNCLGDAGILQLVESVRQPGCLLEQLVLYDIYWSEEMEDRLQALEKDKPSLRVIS
Procedure: (§1) A solution (101) of 20 mM HEPES-HCl buffer, pH 7.6, containing KCl (50 mM) and RNASE A (80 nM) was added to each of the hRI solutions. The resulting mixtures were incubated at 37° C. for 5 min. The ribonucleolytic activity in each mixture was then assessed by using a spectrophotometric assay for poly(C) cleavage, as described (delCardayre et al., 1995), with [poly(C)]=37 μM. This experiment was performed at least twice with wild-type hRI and each variant.

[2] = target: T2, C330A human ribonuclease inhibitor (human, UniProt P13489 2-461, limits assumed); test: as above
T2 construct: also called C330A hRI
T2 sequence: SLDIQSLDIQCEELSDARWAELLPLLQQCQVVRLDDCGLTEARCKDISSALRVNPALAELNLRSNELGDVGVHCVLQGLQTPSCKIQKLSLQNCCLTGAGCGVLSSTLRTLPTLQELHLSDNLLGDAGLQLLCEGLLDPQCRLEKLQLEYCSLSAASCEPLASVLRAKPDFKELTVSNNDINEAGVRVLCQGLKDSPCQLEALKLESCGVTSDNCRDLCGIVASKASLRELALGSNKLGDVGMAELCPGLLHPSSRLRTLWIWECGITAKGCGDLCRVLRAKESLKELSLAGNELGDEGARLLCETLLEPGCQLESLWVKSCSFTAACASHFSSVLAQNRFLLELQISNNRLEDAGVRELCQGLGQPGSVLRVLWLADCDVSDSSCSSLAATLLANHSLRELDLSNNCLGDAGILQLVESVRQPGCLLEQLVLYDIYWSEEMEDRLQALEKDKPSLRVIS
Procedure: as §1

[3] = target: T3, C329A/C330A human ribonuclease inhibitor (human, UniProt P13489 2-461, limits assumed); test: affinity chromatography on RNase A-Sepharose 4B resin
T3 construct: also called C329A/C330A hRI
T3 sequence: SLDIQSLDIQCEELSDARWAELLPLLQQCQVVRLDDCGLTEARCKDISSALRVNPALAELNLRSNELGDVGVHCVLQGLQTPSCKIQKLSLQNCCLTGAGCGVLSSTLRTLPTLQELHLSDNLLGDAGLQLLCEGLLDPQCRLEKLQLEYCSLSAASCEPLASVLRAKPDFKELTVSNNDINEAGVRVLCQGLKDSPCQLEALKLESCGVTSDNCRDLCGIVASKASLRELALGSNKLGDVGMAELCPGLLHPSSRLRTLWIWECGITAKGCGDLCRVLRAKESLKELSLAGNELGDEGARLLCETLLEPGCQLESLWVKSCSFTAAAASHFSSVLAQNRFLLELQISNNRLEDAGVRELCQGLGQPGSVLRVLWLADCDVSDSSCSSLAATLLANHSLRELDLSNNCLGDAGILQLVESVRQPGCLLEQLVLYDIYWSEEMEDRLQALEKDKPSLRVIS

[4] = target: T4, C95A/C96A human ribonuclease inhibitor (human, UniProt P13489 2-461, limits assumed); test: as above
T4 construct: also called C95A/C96A hRI
T4 sequence: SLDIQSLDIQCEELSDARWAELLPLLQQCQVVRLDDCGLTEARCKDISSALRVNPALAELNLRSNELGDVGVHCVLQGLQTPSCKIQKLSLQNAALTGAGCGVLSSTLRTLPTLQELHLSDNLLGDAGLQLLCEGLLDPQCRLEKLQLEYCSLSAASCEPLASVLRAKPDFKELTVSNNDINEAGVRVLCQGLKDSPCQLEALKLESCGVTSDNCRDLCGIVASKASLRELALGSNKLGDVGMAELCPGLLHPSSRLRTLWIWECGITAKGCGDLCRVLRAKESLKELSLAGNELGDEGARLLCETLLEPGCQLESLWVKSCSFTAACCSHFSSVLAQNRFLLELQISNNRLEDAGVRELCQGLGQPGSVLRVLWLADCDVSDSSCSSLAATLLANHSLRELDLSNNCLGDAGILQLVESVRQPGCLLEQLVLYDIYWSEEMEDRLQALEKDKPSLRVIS

[5] = target: T5, wild-type human ribonuclease inhibitor (human, UniProt P13489 2-461, limits assumed); test: as above
T5 construct: Made in E. coli from plasmid pET-RI; also called hRI; wild-type hRI
T5 sequence: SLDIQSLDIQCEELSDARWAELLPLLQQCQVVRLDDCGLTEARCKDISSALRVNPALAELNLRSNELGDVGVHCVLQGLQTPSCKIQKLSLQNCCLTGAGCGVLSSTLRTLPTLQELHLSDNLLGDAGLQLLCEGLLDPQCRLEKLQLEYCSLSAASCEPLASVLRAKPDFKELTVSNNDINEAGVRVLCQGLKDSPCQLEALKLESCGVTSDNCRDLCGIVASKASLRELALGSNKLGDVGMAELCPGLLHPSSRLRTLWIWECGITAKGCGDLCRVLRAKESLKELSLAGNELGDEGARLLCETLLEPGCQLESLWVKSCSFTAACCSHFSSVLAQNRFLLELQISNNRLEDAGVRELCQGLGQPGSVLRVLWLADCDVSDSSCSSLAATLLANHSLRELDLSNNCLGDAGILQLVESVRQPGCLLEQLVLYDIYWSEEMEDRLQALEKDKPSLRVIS

Measured: binding result

B1: C95A/C96A/C329A/C330A human ribonuclease inhibitor (other)
chain: SLDIQSLDIQCEELSDARWAELLPLLQQCQVVRLDDCGLTEARCKDISSALRVNPALAELNLRSNELGDVGVHCVLQGLQTPSCKIQKLSLQNAALTGAGCGVLSSTLRTLPTLQELHLSDNLLGDAGLQLLCEGLLDPQCRLEKLQLEYCSLSAASCEPLASVLRAKPDFKELTVSNNDINEAGVRVLCQGLKDSPCQLEALKLESCGVTSDNCRDLCGIVASKASLRELALGSNKLGDVGMAELCPGLLHPSSRLRTLWIWECGITAKGCGDLCRVLRAKESLKELSLAGNELGDEGARLLCETLLEPGCQLESLWVKSCSFTAAAASHFSSVLAQNRFLLELQISNNRLEDAGVRELCQGLGQPGSVLRVLWLADCDVSDSSCSSLAATLLANHSLRELDLSNNCLGDAGILQLVESVRQPGCLLEQLVLYDIYWSEEMEDRLQALEKDKPSLRVIS
notes: Variant with all four substitutions; also called C95A/C96A/C329A/C330A hRI
binds: ribonuclease A

B2
not listed: ribonuclease A
binds: all other assays above

Source: US7560248 (WISCONSIN ALUMNI RESEARCH FOUNDATION, dated 2009)
